The text below walks through data of article PMC11005391, “Tetramerization is essential for the enzymatic function of the Pseudomonas aeruginosa virulence factor UDP-glucose pyrophosphorylase” (mBio, 2024).

Data set [1] deals with the molecule itself. Kind of data set: native gel or EMSA; blue native PAGE, uniform 12% polyacrylamide gel with 3.5% stacking gel, 13.5 ug of each protein loaded, Coomassie-stained bands.
For data set [2], the target named is Q9I291. Kind of data set: SEC; Superdex 200 10/300 GL, 50 mM Tris-HCl pH 8.0, 300 mM NaCl, 10 mM MgCl2; oligomeric state calculated from elution volumes of proteins of known size; addition of UTP, Glc-1-P or UDP-Glc did not affect the oligomerization of the WT.
Data set [3] concerns the molecule itself. Kind of data set: cell-based or functional assay.
Data set [4] deals with the molecule itself. The data set is described as follows: SEC; Superdex 200 10/300 GL, 50 mM Tris-HCl pH 8.0, 300 mM NaCl, 10 mM MgCl2; oligomeric state calculated from elution volumes of proteins of known size; addition of UTP, Glc-1-P or UDP-Glc did not affect the oligomerization of the WT.
For data set [5], the target named is Q9I291. The data set is described as follows: SEC; as a1, but the more diluted sample of mutants with dilution-dependent behaviour (footnote b of Table 1; broken lines in Fig. 5 and Fig. S9).
Data set [6] concerns the molecule itself. The data set is described as above.

B1: PaUGP Y70F (enzyme)
chain: MIKKCLFPAAGYGTRFLPATKAMPKEMLPVVNKPLIQYAVEEALEAGLSEIGIVTGRGKRSLEDHFDISFELEHQIRNTDKEKYLVGIRRLIDECTFAYTRQVEMKGLGHAILTGRPLIGDEPFAVVLADDLCLNLEGDSVLKQMVKLYNQFRCSIVAIQEVPPEETNKYGVIAGEMIRDDIFRVNTMVEKPKPEEAPSNLAIIGRYILTPDIFDLIEQTEPGKGGEIQITDALMKQAQDGCVLAYKFKGKRFDCGSAEGYIEATNFCYENLYKTGKAH
notes: UDP-glucose pyrophosphorylase of Pseudomonas aeruginosa (galU), residues 1-279, point mutant of Strep-PaUGP; Same construct as m1; source: E. coli BL21(DE3), purified (Strep-Tactin Sepharose); not shown: Strep-tagII, N-terminal, kept
B1: the entries for the “stoichiometry N” value in data set [1] and in data set [4] were 4 and 3.7, respectively. The N of the monomer peak (minor peak) with Q9I291 [2] was 1.3. Also, the “In vitro activity (% of WT), EnzChek pyrophosphate assay, forward reaction” value (“In vitro activity (% of WT)” below) in data set [3] is 47.2 % of WT.

B2: PaUGP R101K (enzyme)
chain: MIKKCLFPAAGYGTRFLPATKAMPKEMLPVVNKPLIQYAVEEALEAGLSEIGIVTGRGKRSLEDHFDISYELEHQIRNTDKEKYLVGIRRLIDECTFAYTKQVEMKGLGHAILTGRPLIGDEPFAVVLADDLCLNLEGDSVLKQMVKLYNQFRCSIVAIQEVPPEETNKYGVIAGEMIRDDIFRVNTMVEKPKPEEAPSNLAIIGRYILTPDIFDLIEQTEPGKGGEIQITDALMKQAQDGCVLAYKFKGKRFDCGSAEGYIEATNFCYENLYKTGKAH
notes: as for B1
In the data set with Q9I291 [5], B2 came in with a N of the monomer peak (minor peak) of 1.2. The “stoichiometry N” value in data set [6] turned out to be 2.1. In data set [3], the “In vitro activity (% of WT)” value is 1.31 % of WT.

B3: PaUGP N266D (enzyme)
chain: MIKKCLFPAAGYGTRFLPATKAMPKEMLPVVNKPLIQYAVEEALEAGLSEIGIVTGRGKRSLEDHFDISYELEHQIRNTDKEKYLVGIRRLIDECTFAYTRQVEMKGLGHAILTGRPLIGDEPFAVVLADDLCLNLEGDSVLKQMVKLYNQFRCSIVAIQEVPPEETNKYGVIAGEMIRDDIFRVNTMVEKPKPEEAPSNLAIIGRYILTPDIFDLIEQTEPGKGGEIQITDALMKQAQDGCVLAYKFKGKRFDCGSAEGYIEATDFCYENLYKTGKAH
notes: as for B1
Take B3: the “stoichiometry N” value in data set [1] is 4; in data set [4], 4.2. The N of the monomer peak (minor peak) with Q9I291 [2] was 1.2. Further, in data set [3], the “In vitro activity (% of WT)” value is 105 % of WT.

B4: PaUGP H74A (enzyme)
chain: MIKKCLFPAAGYGTRFLPATKAMPKEMLPVVNKPLIQYAVEEALEAGLSEIGIVTGRGKRSLEDHFDISYELEAQIRNTDKEKYLVGIRRLIDECTFAYTRQVEMKGLGHAILTGRPLIGDEPFAVVLADDLCLNLEGDSVLKQMVKLYNQFRCSIVAIQEVPPEETNKYGVIAGEMIRDDIFRVNTMVEKPKPEEAPSNLAIIGRYILTPDIFDLIEQTEPGKGGEIQITDALMKQAQDGCVLAYKFKGKRFDCGSAEGYIEATNFCYENLYKTGKAH
notes: as for B1
Turning to B4, the “stoichiometry N” value was 4 in data set [1] and 3.7 in data set [4]. Moreover, the N of the monomer peak (minor peak) with Q9I291 [2] was 1.3. Also, in data set [3], the “In vitro activity (% of WT)” value is 60.3 % of WT.

B5: PaUGP R101A (enzyme)
chain: MIKKCLFPAAGYGTRFLPATKAMPKEMLPVVNKPLIQYAVEEALEAGLSEIGIVTGRGKRSLEDHFDISYELEHQIRNTDKEKYLVGIRRLIDECTFAYTAQVEMKGLGHAILTGRPLIGDEPFAVVLADDLCLNLEGDSVLKQMVKLYNQFRCSIVAIQEVPPEETNKYGVIAGEMIRDDIFRVNTMVEKPKPEEAPSNLAIIGRYILTPDIFDLIEQTEPGKGGEIQITDALMKQAQDGCVLAYKFKGKRFDCGSAEGYIEATNFCYENLYKTGKAH
notes: as for B1
The protein B5 returned a N of the monomer peak (minor peak) with Q9I291 [5] of 1.2. For the same protein, in data set [6], the “N of a minor peak” value came out at 3.6 and the “stoichiometry N” value stood at 1.8. In data set [3], the “In vitro activity (% of WT)” value is 0.83 % of WT.
